*1 amine or outer side, *2 acyl side, *3 side chain or, on linkers, in order; H or OH if unused. Side-chain parts run from the residue outwards. The star is where a group is joined. C18 diacid = O=C(O)CCCCCCCCCCCCCCCCC(=O)*; γGlu = O=C(O)[C@H](CCC(=O)[*:2])N[*:1]; Isovaleryl = CC(C)CC(=O)*; AEEA = NCCOCCOCC(=O)O
T1: human neuropeptide Y2 receptor (human, UniProt P49146 1-381)
T1 construct: whole, on cells; also called hNPY2 receptor; hNPY2-R
T1 sequence (looked up): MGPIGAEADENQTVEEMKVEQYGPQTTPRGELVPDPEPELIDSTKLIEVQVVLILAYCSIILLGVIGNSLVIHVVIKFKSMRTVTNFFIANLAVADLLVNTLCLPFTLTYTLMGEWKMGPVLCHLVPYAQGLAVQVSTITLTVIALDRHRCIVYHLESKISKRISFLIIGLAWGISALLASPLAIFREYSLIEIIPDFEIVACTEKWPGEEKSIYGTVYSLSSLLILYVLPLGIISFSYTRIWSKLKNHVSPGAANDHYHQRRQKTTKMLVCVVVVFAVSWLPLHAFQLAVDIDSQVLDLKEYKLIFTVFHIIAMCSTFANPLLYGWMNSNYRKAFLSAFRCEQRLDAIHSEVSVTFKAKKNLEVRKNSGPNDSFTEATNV

B1: Compound 121 (peptide)
peptide: Isovaleryl-APAK([AEEA-AEEA-γGlu-C18 diacid])PEADASPEELQRYYVSLRHYYNWLTRQRY-NH2
SMILES: CC(C)CC(=O)N[C@@H](C)C(=O)N1CCC[C@H]1C(=O)N[C@@H](C)C(=O)N[C@@H](CCCCNC(=O)COCCOCCNC(=O)COCCOCCNC(=O)CC[C@H](NC(=O)CCCCCCCCCCCCCCCCC(=O)O)C(=O)O)C(=O)N1CCC[C@H]1C(=O)N[C@@H](CCC(=O)O)C(=O)N[C@@H](C)C(=O)N[C@@H](CC(=O)O)C(=O)N[C@@H](C)C(=O)N[C@@H](CO)C(=O)N1CCC[C@H]1C(=O)N[C@@H](CCC(=O)O)C(=O)N[C@@H](CCC(=O)O)C(=O)N[C@@H](CC(C)C)C(=O)N[C@@H](CCC(N)=O)C(=O)N[C@@H](CCCNC(=N)N)C(=O)N[C@@H](Cc1ccc(O)cc1)C(=O)N[C@@H](Cc1ccc(O)cc1)C(=O)N[C@H](C(=O)N[C@@H](CO)C(=O)N[C@@H](CC(C)C)C(=O)N[C@@H](CCCNC(=N)N)C(=O)N[C@@H](Cc1c[nH]cn1)C(=O)N[C@@H](Cc1ccc(O)cc1)C(=O)N[C@@H](Cc1ccc(O)cc1)C(=O)N[C@@H](CC(N)=O)C(=O)N[C@@H](Cc1c[nH]c2ccccc12)C(=O)N[C@@H](CC(C)C)C(=O)N[C@H](C(=O)N[C@@H](CCCNC(=N)N)C(=O)N[C@@H](CCC(N)=O)C(=O)N[C@@H](CCCNC(=N)N)C(=O)N[C@@H](Cc1ccc(O)cc1)C(N)=O)[C@@H](C)O)C(C)C
B2: Compound 122 (peptide)
peptide: Isovaleryl-APEK([AEEA-AEEA-γGlu-C18 diacid])PEEDAAPEELQRYYVSLRHYYNWLTRQRY-NH2
SMILES: CC(C)CC(=O)N[C@@H](C)C(=O)N1CCC[C@H]1C(=O)N[C@@H](CCC(=O)O)C(=O)N[C@@H](CCCCNC(=O)COCCOCCNC(=O)COCCOCCNC(=O)CC[C@H](NC(=O)CCCCCCCCCCCCCCCCC(=O)O)C(=O)O)C(=O)N1CCC[C@H]1C(=O)N[C@@H](CCC(=O)O)C(=O)N[C@@H](CCC(=O)O)C(=O)N[C@@H](CC(=O)O)C(=O)N[C@@H](C)C(=O)N[C@@H](C)C(=O)N1CCC[C@H]1C(=O)N[C@@H](CCC(=O)O)C(=O)N[C@@H](CCC(=O)O)C(=O)N[C@@H](CC(C)C)C(=O)N[C@@H](CCC(N)=O)C(=O)N[C@@H](CCCNC(=N)N)C(=O)N[C@@H](Cc1ccc(O)cc1)C(=O)N[C@@H](Cc1ccc(O)cc1)C(=O)N[C@H](C(=O)N[C@@H](CO)C(=O)N[C@@H](CC(C)C)C(=O)N[C@@H](CCCNC(=N)N)C(=O)N[C@@H](Cc1c[nH]cn1)C(=O)N[C@@H](Cc1ccc(O)cc1)C(=O)N[C@@H](Cc1ccc(O)cc1)C(=O)N[C@@H](CC(N)=O)C(=O)N[C@@H](Cc1c[nH]c2ccccc12)C(=O)N[C@@H](CC(C)C)C(=O)N[C@H](C(=O)N[C@@H](CCCNC(=N)N)C(=O)N[C@@H](CCC(N)=O)C(=O)N[C@@H](CCCNC(=N)N)C(=O)N[C@@H](Cc1ccc(O)cc1)C(N)=O)[C@@H](C)O)C(C)C
B3: Compound 124 (peptide)
peptide: Isovaleryl-APEK([AEEA-AEEA-γGlu-C18 diacid])PEEDAAPEEIQRYYVSLRHYYNWLTRQRY-NH2
SMILES: CC[C@H](C)[C@H](NC(=O)[C@H](CCC(=O)O)NC(=O)[C@H](CCC(=O)O)NC(=O)[C@@H]1CCCN1C(=O)[C@H](C)NC(=O)[C@H](C)NC(=O)[C@H](CC(=O)O)NC(=O)[C@H](CCC(=O)O)NC(=O)[C@H](CCC(=O)O)NC(=O)[C@@H]1CCCN1C(=O)[C@H](CCCCNC(=O)COCCOCCNC(=O)COCCOCCNC(=O)CC[C@H](NC(=O)CCCCCCCCCCCCCCCCC(=O)O)C(=O)O)NC(=O)[C@H](CCC(=O)O)NC(=O)[C@@H]1CCCN1C(=O)[C@H](C)NC(=O)CC(C)C)C(=O)N[C@@H](CCC(N)=O)C(=O)N[C@@H](CCCNC(=N)N)C(=O)N[C@@H](Cc1ccc(O)cc1)C(=O)N[C@@H](Cc1ccc(O)cc1)C(=O)N[C@H](C(=O)N[C@@H](CO)C(=O)N[C@@H](CC(C)C)C(=O)N[C@@H](CCCNC(=N)N)C(=O)N[C@@H](Cc1c[nH]cn1)C(=O)N[C@@H](Cc1ccc(O)cc1)C(=O)N[C@@H](Cc1ccc(O)cc1)C(=O)N[C@@H](CC(N)=O)C(=O)N[C@@H](Cc1c[nH]c2ccccc12)C(=O)N[C@@H](CC(C)C)C(=O)N[C@H](C(=O)N[C@@H](CCCNC(=N)N)C(=O)N[C@@H](CCC(N)=O)C(=O)N[C@@H](CCCNC(=N)N)C(=O)N[C@@H](Cc1ccc(O)cc1)C(N)=O)[C@@H](C)O)C(C)C
B4: Compound 126 (peptide)
peptide: Isovaleryl-APAK([AEEA-AEEA-γGlu-C18 diacid])PEEDSSPEELQRYYVSLRHYYNWLTRQRY-NH2
SMILES: CC(C)CC(=O)N[C@@H](C)C(=O)N1CCC[C@H]1C(=O)N[C@@H](C)C(=O)N[C@@H](CCCCNC(=O)COCCOCCNC(=O)COCCOCCNC(=O)CC[C@H](NC(=O)CCCCCCCCCCCCCCCCC(=O)O)C(=O)O)C(=O)N1CCC[C@H]1C(=O)N[C@@H](CCC(=O)O)C(=O)N[C@@H](CCC(=O)O)C(=O)N[C@@H](CC(=O)O)C(=O)N[C@@H](CO)C(=O)N[C@@H](CO)C(=O)N1CCC[C@H]1C(=O)N[C@@H](CCC(=O)O)C(=O)N[C@@H](CCC(=O)O)C(=O)N[C@@H](CC(C)C)C(=O)N[C@@H](CCC(N)=O)C(=O)N[C@@H](CCCNC(=N)N)C(=O)N[C@@H](Cc1ccc(O)cc1)C(=O)N[C@@H](Cc1ccc(O)cc1)C(=O)N[C@H](C(=O)N[C@@H](CO)C(=O)N[C@@H](CC(C)C)C(=O)N[C@@H](CCCNC(=N)N)C(=O)N[C@@H](Cc1c[nH]cn1)C(=O)N[C@@H](Cc1ccc(O)cc1)C(=O)N[C@@H](Cc1ccc(O)cc1)C(=O)N[C@@H](CC(N)=O)C(=O)N[C@@H](Cc1c[nH]c2ccccc12)C(=O)N[C@@H](CC(C)C)C(=O)N[C@H](C(=O)N[C@@H](CCCNC(=N)N)C(=O)N[C@@H](CCC(N)=O)C(=O)N[C@@H](CCCNC(=N)N)C(=O)N[C@@H](Cc1ccc(O)cc1)C(N)=O)[C@@H](C)O)C(C)C
B5: Compound 130 (peptide)
peptide: Isovaleryl-APEK([AEEA-AEEA-γGlu-C18 diacid])PEEDTSAEELQRYYVSLRHYYNWLTRQRY-NH2
SMILES: CC(C)CC(=O)N[C@@H](C)C(=O)N1CCC[C@H]1C(=O)N[C@@H](CCC(=O)O)C(=O)N[C@@H](CCCCNC(=O)COCCOCCNC(=O)COCCOCCNC(=O)CC[C@H](NC(=O)CCCCCCCCCCCCCCCCC(=O)O)C(=O)O)C(=O)N1CCC[C@H]1C(=O)N[C@@H](CCC(=O)O)C(=O)N[C@@H](CCC(=O)O)C(=O)N[C@@H](CC(=O)O)C(=O)N[C@H](C(=O)N[C@@H](CO)C(=O)N[C@@H](C)C(=O)N[C@@H](CCC(=O)O)C(=O)N[C@@H](CCC(=O)O)C(=O)N[C@@H](CC(C)C)C(=O)N[C@@H](CCC(N)=O)C(=O)N[C@@H](CCCNC(=N)N)C(=O)N[C@@H](Cc1ccc(O)cc1)C(=O)N[C@@H](Cc1ccc(O)cc1)C(=O)N[C@H](C(=O)N[C@@H](CO)C(=O)N[C@@H](CC(C)C)C(=O)N[C@@H](CCCNC(=N)N)C(=O)N[C@@H](Cc1c[nH]cn1)C(=O)N[C@@H](Cc1ccc(O)cc1)C(=O)N[C@@H](Cc1ccc(O)cc1)C(=O)N[C@@H](CC(N)=O)C(=O)N[C@@H](Cc1c[nH]c2ccccc12)C(=O)N[C@@H](CC(C)C)C(=O)N[C@H](C(=O)N[C@@H](CCCNC(=N)N)C(=O)N[C@@H](CCC(N)=O)C(=O)N[C@@H](CCCNC(=N)N)C(=O)N[C@@H](Cc1ccc(O)cc1)C(N)=O)[C@@H](C)O)C(C)C)[C@@H](C)O
B6: Compound 131 (peptide)
peptide: Isovaleryl-APEK([AEEA-AEEA-γGlu-C18 diacid])AEEDASPEELQRYYVELRHYYNWLTRQRY-NH2
SMILES: CC(C)CC(=O)N[C@@H](C)C(=O)N1CCC[C@H]1C(=O)N[C@@H](CCC(=O)O)C(=O)N[C@@H](CCCCNC(=O)COCCOCCNC(=O)COCCOCCNC(=O)CC[C@H](NC(=O)CCCCCCCCCCCCCCCCC(=O)O)C(=O)O)C(=O)N[C@@H](C)C(=O)N[C@@H](CCC(=O)O)C(=O)N[C@@H](CCC(=O)O)C(=O)N[C@@H](CC(=O)O)C(=O)N[C@@H](C)C(=O)N[C@@H](CO)C(=O)N1CCC[C@H]1C(=O)N[C@@H](CCC(=O)O)C(=O)N[C@@H](CCC(=O)O)C(=O)N[C@@H](CC(C)C)C(=O)N[C@@H](CCC(N)=O)C(=O)N[C@@H](CCCNC(=N)N)C(=O)N[C@@H](Cc1ccc(O)cc1)C(=O)N[C@@H](Cc1ccc(O)cc1)C(=O)N[C@H](C(=O)N[C@@H](CCC(=O)O)C(=O)N[C@@H](CC(C)C)C(=O)N[C@@H](CCCNC(=N)N)C(=O)N[C@@H](Cc1c[nH]cn1)C(=O)N[C@@H](Cc1ccc(O)cc1)C(=O)N[C@@H](Cc1ccc(O)cc1)C(=O)N[C@@H](CC(N)=O)C(=O)N[C@@H](Cc1c[nH]c2ccccc12)C(=O)N[C@@H](CC(C)C)C(=O)N[C@H](C(=O)N[C@@H](CCCNC(=N)N)C(=O)N[C@@H](CCC(N)=O)C(=O)N[C@@H](CCCNC(=N)N)C(=O)N[C@@H](Cc1ccc(O)cc1)C(N)=O)[C@@H](C)O)C(C)C

Target: T1, human neuropeptide Y2 receptor
Assay: radioligand competition (125I-PYY(1-36)), hNPY2R membranes
Summary of the method: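 Commercial human Y2 receptor membranes (0.5 μg protein/well) were incubated with peptide for 2 h at room temperature in 50 mM HEPES, 5 mM MgCl₂, 1 mM CaCl₂, pH 7.4, with 0.2% ovalbumin. Bound radioligand was separated on PEI-soaked GF/C filters and counted by scintillation, and IC₅₀ came from nonlinear sigmoidal regression.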

First: B1
Second: B2
The Ki of the first is 3-fold lower: 0.61 nM for the first, 1.84 nM for the second.

Going from B3 to B4, the Ki rises from 0.5 nM to 1.18 nM (2.4-fold). The first binds more tightly here.

B5 and B6 are within 1.5-fold of each other in Ki: 11.1 nM for the first, 8.54 nM for the second.
